T1: Tho1 N-terminal SAP domain (Saccharomyces cerevisiae, UniProt P40040 1-50)
T1 chain: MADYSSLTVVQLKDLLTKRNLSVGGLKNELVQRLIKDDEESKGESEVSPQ


Experiments:
[1] = molecular target: T1, Tho1 N-terminal SAP domain; assay: NMR (15N HSQC); 200 uM protein; 15N HSQC, 200 uM protein and oligo; typical NMR buffer 20 mM potassium phosphate pH 6.5, 100 mM NaCl, 5 mM beta-mercaptoethanol, 10% D2O, 25 C; conditions: protein: recombinant; tags: His6-lipoyl fusion removed by TEV; 15N-labelled; called dsRNA
[2] = molecular target: T1, Tho1 N-terminal SAP domain; assay: NMR (15N HSQC); 200 uM protein, 200 uM DNA; 15N HSQC, 200 uM protein and oligo; typical NMR buffer 20 mM potassium phosphate pH 6.5, 100 mM NaCl, 5 mM beta-mercaptoethanol, 10% D2O, 25 C; conditions: protein: recombinant; tags: His6-lipoyl fusion removed by TEV; 15N-labelled; blunt, self-complementary, 2 copies of one strand

Binder | binding result [1] | binding result [2]
GGACAGCUGUCCCUUCGGGGACAGCUGUCC (structured_RNA) [30-mer dsRNA] | no binding | 
random dsDNA 12-mer (dsDNA) DNA 1: TCCTGATCAGGA DNA 2: TCCTGATCAGGA |  | binds
